# In article doi:10.1101/2021.05.23.445348:
# Experiments:
# Assay in all cases: ITC
# [1] = biological target: SARS-CoV-2 RBD T478I (SARS-CoV-2) (UniProt P0DTC2)
# [2] = biological target: SARS-CoV-2 RBD K417N (SARS-CoV-2) (UniProt P0DTC2)
# [3] = biological target: SARS-CoV-2 RBD Y453F (SARS-CoV-2) (UniProt P0DTC2)
substance,measurement,setting,value
CC12.1 single chain variable fragment (scFv),Kd,[1],5.8 nM
same,Kd,[2],119 nM
same,Kd,[3],827 nM
